The values that follow come from patent US20130251708A1 (ABGENOMICS COOPERATIEF U A, published 2013).

For assay [1], the target named is T1, human PSGL-1 on activated primary human CD4+ T cells (human, UniProt Q14242 42-412).
T1 construct: also called P-selectin glycoprotein ligand-1; SELPLG
T1 sequence: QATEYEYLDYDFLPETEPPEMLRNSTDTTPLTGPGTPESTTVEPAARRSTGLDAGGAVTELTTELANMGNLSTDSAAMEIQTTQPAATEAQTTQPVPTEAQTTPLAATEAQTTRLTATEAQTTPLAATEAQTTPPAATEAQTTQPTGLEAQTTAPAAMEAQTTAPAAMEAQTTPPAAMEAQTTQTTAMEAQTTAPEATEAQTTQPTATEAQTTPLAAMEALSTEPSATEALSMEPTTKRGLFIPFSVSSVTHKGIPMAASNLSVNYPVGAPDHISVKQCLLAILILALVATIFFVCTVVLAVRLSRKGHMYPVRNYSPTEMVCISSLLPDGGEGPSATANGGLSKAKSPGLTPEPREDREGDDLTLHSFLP
As to the kind of experiment: flow cytometry on activated human CD4+ T cells, mean +/- SEM of 4 donors. The procedure:
(§1) Anti-lysozyme IgG4, h15A7 and 15A7H antibody binding affinity to activated CD4+ T cells were determined by plotting antibody concentration versus mean fluorescence index (MFI) for each sample duplicate using XLfit (model: dose response one site, 205). EC50 values were determined for each binding curve.
Using flow cytometry, the binding of 15A7H to activated human CD4+ T-cells was determined.
(§2) EC50 values from 4 donors were used to calculate Mean+/−SEM.
For orientation: A flow cytometer gives signals particle by particle.

Assay [2] addresses T1, human PSGL-1 on activated primary human …. As to the kind of experiment: flow cytometry on activated human CD4+ T cells, mean +/- SEM. As for the experimental part: as §1, §2

B1: 15A7H (antibody, human IgG4 S228P, kappa)
heavy: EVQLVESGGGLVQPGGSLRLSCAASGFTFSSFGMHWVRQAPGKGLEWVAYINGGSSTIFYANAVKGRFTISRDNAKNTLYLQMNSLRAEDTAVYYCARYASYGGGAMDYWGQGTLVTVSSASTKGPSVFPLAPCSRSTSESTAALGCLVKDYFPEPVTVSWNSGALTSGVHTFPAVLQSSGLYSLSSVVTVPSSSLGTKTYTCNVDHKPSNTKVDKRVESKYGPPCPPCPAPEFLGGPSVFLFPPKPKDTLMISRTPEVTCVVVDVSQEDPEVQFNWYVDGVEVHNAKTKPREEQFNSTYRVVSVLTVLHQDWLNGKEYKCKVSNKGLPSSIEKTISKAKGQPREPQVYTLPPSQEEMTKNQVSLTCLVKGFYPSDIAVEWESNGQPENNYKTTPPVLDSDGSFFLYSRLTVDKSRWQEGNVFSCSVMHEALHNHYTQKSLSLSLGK
light: DIQMTQSPSSLSASVGDRVTITCRSSQSIVHNDGNTYFEWYQQKPGKAPKLLIYKVSNRFSGVPSRFSGSGSGTHFTLTISSLQPEDFATYYCFQGSYVPLTFGQGTKVEIKRTVAAPSVFIFPPSDEQLKSGTASVVCLLNNFYPREAKVQWKVDNALQSGNSQESVTEQDSKDSTYSLSSTLTLSKADYEKHKVYACEVTHQGLSSPVTKSFNRGEC
notes: Humanized IgG4 kappa antibody with the Ser228->Pro228 (EU index) hinge mutation, made in CHO-DG44 cells; also called hinge mutant of h15A7; 15A7H antibody
B1: the midpoint of the response in assay [1], the EC50, lay at 0.22 nM.

B2: h15A7 (antibody, human IgG4, kappa)
heavy: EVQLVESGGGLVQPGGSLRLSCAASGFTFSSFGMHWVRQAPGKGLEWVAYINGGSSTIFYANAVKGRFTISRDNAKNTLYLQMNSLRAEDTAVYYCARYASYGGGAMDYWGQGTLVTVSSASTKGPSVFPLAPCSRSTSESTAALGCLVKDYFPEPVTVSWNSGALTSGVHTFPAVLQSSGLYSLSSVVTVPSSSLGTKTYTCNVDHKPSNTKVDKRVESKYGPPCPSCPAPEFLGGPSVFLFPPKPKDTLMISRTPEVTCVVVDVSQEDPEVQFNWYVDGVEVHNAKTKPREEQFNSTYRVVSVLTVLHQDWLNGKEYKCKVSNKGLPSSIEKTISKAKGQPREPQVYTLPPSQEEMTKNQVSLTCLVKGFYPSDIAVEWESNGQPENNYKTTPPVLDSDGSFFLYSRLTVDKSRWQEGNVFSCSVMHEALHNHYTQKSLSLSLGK
light: DIQMTQSPSSLSASVGDRVTITCRSSQSIVHNDGNTYFEWYQQKPGKAPKLLIYKVSNRFSGVPSRFSGSGSGTHFTLTISSLQPEDFATYYCFQGSYVPLTFGQGTKVEIKRTVAAPSVFIFPPSDEQLKSGTASVVCLLNNFYPREAKVQWKVDNALQSGNSQESVTEQDSKDSTYSLSSTLTLSKADYEKHKVYACEVTHQGLSSPVTKSFNRGEC
notes: Parent IgG4 kappa antibody with the wild-type hinge; also called Antibody h15A7
B2 yielded an EC50 in assay [2] of 0.27 nM.

What is called EC50 is the concentration giving half of the maximal effect.
